What all share (assay): BLI; BLItz, Ni-NTA biosensor; phospho-His-SrcKD or variant (58 μM, 5 μL) immobilised as bait for 3 min; rPTPεD1 or variant as analyte, association 120 s, dissociation 120 s; 20 mM Tris-HCl pH 7.5, 50 mM NaCl, 5 mM DTT; 100 μM ATP and 1 μM CSK added before every immobilisation; global fit
The target in assay [1] is phospho-His-SrcKD (phosphorylated His-tagged Src kinase domain, Trp 260-Leu 533, K295M/Y416F) (UniProt P00523).
Assay [2] concerns the target phospho-His-SrcKD-D518K (phosphorylated His-tagged Src kinase domain, Trp 260-Leu 533, K295M/Y416F and a change at 518) (UniProt P00523).
Assay [3] deals with phospho-His-SrcKD-E486A (phosphorylated His-tagged Src kinase domain, Trp 260-Leu 533, K295M/Y416F/E486A) (UniProt P00523).

As for “rPTPεD1 (D1 domain of rPTP epsilon, Ser 101-Thr 400, C335A) (domain or fragment)”, in assay [1], the dissociation constant Kd was 26.2 µM, the koff was found to be 0.0284 s⁻¹ and the on-rate (kon) was determined as 1080 M⁻¹ s⁻¹. Also, in assay [2], the Kd came to 184 µM, the koff was found to be 0.0661 s⁻¹ and the kon was 360 M⁻¹ s⁻¹. In assay [3], the Kd stood at 80.4 µM, the off-rate constant (koff) stood at 0.0476 s⁻¹ and the association rate constant (kon) is 592 M⁻¹ s⁻¹.
In assay [1], “rPTPεD1-K237D (D1 domain of rPTP epsilon, Ser 101-Thr 400, C335A/K237D) (domain or fragment)” returned a dissociation constant (Kd) of 352 µM, a koff of 0.0853 s⁻¹ and an on-rate (kon) of 242 M⁻¹ s⁻¹.
On the same counts, the results for “rPTPεD1-R220E (D1 domain of rPTP epsilon, Ser 101-Thr 400, C335A/R220E) (domain or fragment)” are 168 µM, 0.0341 s⁻¹ and 202 M⁻¹ s⁻¹.

(Values after publication PMC11268095.)
